Key:
[1] = target: T1, human CD3ε/δ-Fc fusion protein (soluble recombinant CD3ε/δ complex) (human, UniProt P04234 22-105); assay: SPR single point, hybridoma supernatant
T1 construct: also called huCD3ε/δ; huCD3; not shown: hinge, CH2, CH3 of human IgG with tag
Protocol: Rats with positive sera were scarified and B cells were fused with mouse myeloma cells. The resulting hybrndomas were screened on HEK293 cells transfected with human or cynomoligus CD3ε and CD3δ expression plasmids, on Jurkat E6.1 (CD3+) and Jurkat T3.5 (CD3-) by flow cytometry. Supernatant of Hybridoma clones was used to assess by surface plasmon resonance single point kinetic against human and Macaca fascicularis CD3ε/δ complex by fixing the analyte at 25 nM (data presented in table 3).

[2] = target: T2, human CD3δ expressed alone on HEK293F cells (human, UniProt P04234 22-171); assay: flow cytometry, HEK293F transfected with huCD3δ
T2 construct: entry includes the signal peptide; also called huCD3δ
Protocol: To analyze binding of antibodies to human CD3ε and human CD3δ expressed on the surface of cells, HEK293F cells were transfected with both constructs either alone or in co-transfection and signals were measured by flow cytometry. For transfection procedure FuGENE HD Transfection Reagent (Promega, #E2311) was used according to manufacturer's protocol.
Cells were incubated on a shaker at 37° C. and 5% CO2. At day one to three after transfection cells were harvested and binding of antibodies was analyzed by flow cytometry.
Antibodies for staining were seeded at 1 μg in 50 μl per well Stain Buffer with FBS (BD Pharmingen) in 96-well U-bottom suspension culture plates (Greiner bio-one). Harvested transfected cells were resuspended in Stain Buffer with FBS and were added at 50 μl per well to the antibodies. Cells were incubated at 4° C. in the dark for 30 min and were washed twice. 0.5 μg secondary antibody Goat F(ab′)2 Anti-Human IgG-FITC (Beckman Coulter, #732598) or Goat F(ab′)2 Anti-Human kappa-PE (Southern Biotech, #206209), respectively, in combination with 0.5 μg 7-AAD per well was added in 100 μl Stain Buffer with FBS. Cells were incubated at 4° C. in the dark for 15 min and were washed twice. For measurement, cells were resuspended in 200 μl Stain Buffer with FBS. Cells were measured using the MACSQuant (Miltenyi Biotec) or LSRII (BD) flow cytometer, respectively. Further data analyses were performed using the FlowJo software (Tree Star, Inc.).

[3] = target: T3, human CD123 (IL3RA) on cells (human, UniProt P26951 19-378); assay: flow cytometry, CD123 transfected HEK293, hybridoma supernatant
T3 construct: also called CD123 transfected HEK293; THP-1
Protocol: Cells were resuspended in 200 μl Stain Buffer with FBS per well and were measured using the MACSQuant (Miltenyi Biotec) or LSRII (BD) flow cytometer. Further data analyses were performed using the FlowJo software (Tree Star, Inc.). Read out was percentage of cells positive for antibody binding. Cells treated only with the secondary but no primary antibody were used to set the gates. Curves were calculated by XLfit (Algorithm 205).

[4] = target: T4, Macaca fascicularis CD123 Fc-fusion protein (Macaca fascicularis); assay: SPR Proteon XPR36, rat IgG captured, CD123-Fc analyte
T4 construct: also called cyno CD123-Fc
Protocol: (§1) Screening of anti-CD123 rat IgGs for binding affinities to human CD123 and cross-reactivities to cyno CD123 was performed with hybridoma supernatants using a Proteon XPR36 (Biorad) in a one-shot kinetics approach. A capture assay was established using a goat anti-rat IgG (112-005-071, Jackson Immuno Research). The capture antibody was coated on GLC chips (176-5011, Biorad) to approx. 8000 RU in the vertical direction using the amine coupling kit (176-2410, Biorad). […] Binding kinetics with human and cyno CD123-Fc fusion protein was measured at 100 μl/min in the horizontal direction with 120 sec. and 600 sec. for association and dissociation, respectively. The CD123-Fc proteins were used in twofold dilutions from 6 nM to 100 nM. PBSET buffer (176-2730, Biorad) was used as assay buffer. Regeneration was achieved by injection of 10 mM Glycine buffer pH 1.5 for 18 sec at 30 μl/min. Data processing and analysis was performed using ProteonManager software v3.0. Fitting of the sensorgrams was done with a 1:1 Langmuir model.

[5] = target: T5, human CD123 Strep-II tagged Fc-fusion protein (human); assay: as above
T5 construct: also called human CD123-Fc; recombinant CD123
Protocol: as §1

T1 sequence (chain, as listed by the source mutant, chain 1 of 2): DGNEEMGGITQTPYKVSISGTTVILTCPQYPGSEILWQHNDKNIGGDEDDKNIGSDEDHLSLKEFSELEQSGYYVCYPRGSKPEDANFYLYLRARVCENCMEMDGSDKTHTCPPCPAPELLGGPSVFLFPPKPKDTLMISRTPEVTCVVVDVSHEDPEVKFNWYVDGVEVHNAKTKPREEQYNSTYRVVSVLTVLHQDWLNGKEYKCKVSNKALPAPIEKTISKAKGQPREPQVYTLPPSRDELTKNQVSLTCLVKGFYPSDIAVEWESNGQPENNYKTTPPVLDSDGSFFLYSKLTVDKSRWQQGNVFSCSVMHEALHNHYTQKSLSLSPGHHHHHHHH
T1 sequence (P04234 22-105, stated change not applied, chain 2 of 2): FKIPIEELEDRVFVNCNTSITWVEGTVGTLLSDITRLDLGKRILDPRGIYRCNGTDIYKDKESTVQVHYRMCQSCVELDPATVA
T5 sequence (chain, as listed by the source limits assumed): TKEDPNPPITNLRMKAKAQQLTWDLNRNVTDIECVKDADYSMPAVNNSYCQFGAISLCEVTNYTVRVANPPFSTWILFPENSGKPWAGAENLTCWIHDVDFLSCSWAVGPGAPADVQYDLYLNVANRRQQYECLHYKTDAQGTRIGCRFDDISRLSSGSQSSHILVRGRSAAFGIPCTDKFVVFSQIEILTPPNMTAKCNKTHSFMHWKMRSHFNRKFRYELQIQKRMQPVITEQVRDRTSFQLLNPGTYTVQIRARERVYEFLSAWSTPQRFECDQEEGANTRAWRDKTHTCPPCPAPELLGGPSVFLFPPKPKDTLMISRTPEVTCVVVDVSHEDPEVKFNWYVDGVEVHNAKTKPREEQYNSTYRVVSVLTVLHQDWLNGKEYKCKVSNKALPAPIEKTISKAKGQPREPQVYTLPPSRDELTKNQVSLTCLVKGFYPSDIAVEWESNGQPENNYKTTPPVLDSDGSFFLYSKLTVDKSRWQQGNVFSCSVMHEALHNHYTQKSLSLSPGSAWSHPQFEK
T3 sequence (P26951 19-378): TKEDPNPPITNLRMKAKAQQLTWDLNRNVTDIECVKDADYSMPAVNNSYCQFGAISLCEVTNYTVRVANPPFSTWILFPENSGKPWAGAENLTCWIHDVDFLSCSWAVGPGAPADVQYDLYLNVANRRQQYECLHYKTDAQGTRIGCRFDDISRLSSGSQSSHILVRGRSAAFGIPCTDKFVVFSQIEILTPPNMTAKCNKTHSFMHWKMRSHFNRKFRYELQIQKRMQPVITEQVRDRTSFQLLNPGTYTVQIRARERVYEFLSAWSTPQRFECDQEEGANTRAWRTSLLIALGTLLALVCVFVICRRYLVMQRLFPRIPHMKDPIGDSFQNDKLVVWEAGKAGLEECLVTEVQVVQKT
T4 sequence (chain, as listed by the source limits assumed): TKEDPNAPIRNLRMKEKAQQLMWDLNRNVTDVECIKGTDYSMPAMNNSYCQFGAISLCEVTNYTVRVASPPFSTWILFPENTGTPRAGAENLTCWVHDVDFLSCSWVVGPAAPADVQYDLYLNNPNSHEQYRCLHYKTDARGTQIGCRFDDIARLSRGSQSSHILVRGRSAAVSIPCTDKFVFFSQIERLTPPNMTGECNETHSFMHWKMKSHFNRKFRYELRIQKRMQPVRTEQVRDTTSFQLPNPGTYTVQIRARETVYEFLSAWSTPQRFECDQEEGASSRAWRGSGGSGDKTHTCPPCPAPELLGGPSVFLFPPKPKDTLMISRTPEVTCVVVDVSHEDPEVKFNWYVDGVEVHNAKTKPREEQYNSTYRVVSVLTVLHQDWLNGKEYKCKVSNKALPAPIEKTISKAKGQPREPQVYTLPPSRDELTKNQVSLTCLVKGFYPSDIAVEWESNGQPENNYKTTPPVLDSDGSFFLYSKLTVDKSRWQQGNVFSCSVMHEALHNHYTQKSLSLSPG
T2 sequence (P04234 22-171 limits assumed, stated change not applied): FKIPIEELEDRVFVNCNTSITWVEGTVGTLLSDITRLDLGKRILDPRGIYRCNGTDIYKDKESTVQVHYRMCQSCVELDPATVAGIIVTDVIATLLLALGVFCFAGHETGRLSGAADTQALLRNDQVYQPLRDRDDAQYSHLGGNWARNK

Binder	RU at 25 nM [1] [RU]	EC50 [3] [ng/mL]	Kd [4] [nM]	further results
10F4-C10 anti-CD3 antibody (hybridoma supernatant) (antibody, V domains shown, rat IgG in hybridoma supernatant) VH: EVQLVETGGSLVQPGKSLKITCATSGFTFSNAWMHWVRQSPEKQLEWVAQIKAKSNNYATYYAESVKGRFTISRDDSKSSIYLQMNSLKEEDTAIYYCRAVNYGNYPLDYWGQGVMVTVSS VL: DVVMTQTPVSLSVSLGGQVSISCRSSQSLVHNNGNTYLSWCLQKPGQSPQLLIYKVSNRFSGISDRFSGSGSGTDFTLKISRVEPDDLGVYYCGQGTQYPFTFGAGTKLELK	22			
3H6-D2 anti-CD3 antibody (hybridoma supernatant) (antibody, V domains shown, rat IgG in hybridoma supernatant) VH: EVQLVETGGRLVQPGKSLKLTCATSGFTFSNAWMHWVRQSPEKQLEWVAQIKDKSNNYATYYAESVKGRFTISRDDSKSIIYLQMNSLKEEDTAIYYCRALTYYGYKRDAMDGWGHGTSVTVSS VL: DVVMTQTPVSLSVSLGGQVSISCRSSQSLVHNNGNTYLSWYLQKPGQSPQLLIYKVSNRFSGISDRFSGSGSGTDFTLKISRVEPDDLGVYYCGQGTQYPFTFGAGTKLELK	9.5			
5B1-G2 Fab (Fab, V domains shown) VH: EVQVVETGGSLVQPGKSLKLTCATSGFSFSNAWMHWVRQSPEKQLEWVAQIKDKANNYATYYAESVKGRFTISRDDSKGSIYLQMNSLKEEDTAVYYCRGLYYGLFPSDYWGQGVMVTVSS VL: DVVMTQTPVSLSVSLGGQVSISCRSSQSLVHNNGNTYLSWYLLKPGQSPQLLIYKVSNRFSGISDRFSGGGSGTDFTLKISRLEPDDLGIYYCGQGTQYPFTFGSGTKLEIK				binding result [2]: no binding (tested: <20% of binding of huCD3e + huCD3d)
18G9-H11 anti-CD3 antibody (hybridoma supernatant) (antibody, V domains shown, rat IgG in hybridoma supernatant) VH: EVQLVETGGSLVQPGKSLKLTCATSGFTFSNAWIQWVRQSPEKQLEWVAQIKAKSNNYATYYAESVKGRFTISRDDSKSSVYLQMNSLKEEDTALYYCTWRHYYSSHTMDAWGQGTLVTVSS VL: DVVMTQTPVSLSVSLGGQVSISCRSSQSLVHNNGNTYLSWYLQKPGQSPQLLIYKVSNRFSGISDRFSGSGSGTDFTLKISRVAPTDLGVYYCGQGSQYPFTFGAGTKLELK	7			
16F8-A7 anti-CD3 antibody (hybridoma supernatant) (antibody, V domains shown, rat IgG in hybridoma supernatant) VH: VETGGNLVQPGKSLKLTCATSGFTFSNAWMHWVRQSPEKQLEWVAQIKAKSNNYATYYAESVKGRFTISRDDSKSSVYLQMNSLKEEDTAIYYCRYVNYGLAPMDVWGQGTSVTVSS VL: DVVMTQTPVSLSVSLGGQVSISCRSSQSLVHNNGNTYLSWYLQKPGQSPQLLIYKVSNRFSGFSDRFSGSGSGTDFTLKISRVEPDDLGVYYCGQGTQYPFTFGAGTKLELK	17.5			
20E5-F10 anti-CD3 antibody (hybridoma supernatant) (antibody, V domains shown, rat IgG in hybridoma supernatant) VH: EVQLVETGENLVQPGKSLRLTCATSGFSFSNAWMHWIRQSPEKQLEWVAQIKDKSNNYATYYAESVNGRFTISRDDSKSSIYLHMDNLKEEDSAIYYCRYVHYGVRFFYTMDVWGQGTSVTVSS VL: DVVMTQTPVSLSVSLGDQVSISCRPSQSLVHNNGNTYLSWYLQKPGQSPHPLIYKVSNRFSGISDRFSGSGSGTDFTLKISRVEPDDLGVYYCGQGTQYPFTFGSGTKLEIK	12			
2B8-F3 anti-CD123 rat IgG (hybridoma supernatant) (antibody, V domains shown, rat IgG; also called BFX - 2B8) VH: EVQLVESGGGLVQPGRSLKLSCAASGFTFSDYNMAWVRQAPKKGLEWVATILYDGGRTYYRGSVKGRFTISRDNAKSTLYLRMDSLRSEDTATYYCATHSRGTDYFDYWGQGVMVTVSS VL: EIVLTQSPTSMTASPGEQVTITCRASSSINYMHWYQQKPGASPRPWIYETSKLASGVPDRFSGSASGTSYSLTINNMEAEDAATYYCQQWNYPSWTFGGGTKLELK		5.5	0.77	Kd [5]: 0.018 nM; koff [5]: 1.2e-05 s⁻¹; kon [5]: 660000 M⁻¹ s⁻¹
3E3-D3 anti-CD123 rat IgG (hybridoma supernatant) (antibody, V domains shown, rat IgG; also called BFX - 3E3) VH: QVQLQESGPGLVQPSQTLSLTCTVSGFSLTTYDVHWVRQPPGKGLEWMGRIQNGGITDYNSALKSRLIISRDTSKSQVFLKMNSVQTEDTAMYFCAKTGSYFYAFDHWGQGTLVTVSS VL: QFVLTQPNSVSTNLGSTVKLSCKRNTGNIGSNYVNWYQQHEGRSPTTMIYRDDKRPDGVPDRFSGSIDRSSNSALLTINNVQTEDEADYFCQSYSSGINIIFGGGTKLTVL		2	0.12	Kd [5]: 0.4 nM; koff [5]: 6.4e-05 s⁻¹; kon [5]: 160000 M⁻¹ s⁻¹
3B10-E6 anti-CD123 rat IgG (hybridoma supernatant) (antibody, V domains shown, rat IgG; also called BFX - 3B10) VH: QVQLQQSGPELRRPGSSVRLSCKASGYRIKDFLIHWIKNRPEHGLEWIGWIDPEDGETKYAQKFQTKATLTADTSSNTAYMQLSSLTSEDTATYFCARWGDVYYGLMRGHVMDAWGQGTSVTVSS VL: DVLMTQTPVSLPVSLGGQVSISCRSSQSLVHSDGDTYLHWYLQKPGQSPQLLIYRVSNRFSGVPDRFSGSGSGTDFTLKISRVEPEDLGLYYCLQTTHFPPWTFGGGTKLEMK		2	0.27	
1E1-G5 anti-CD123 rat IgG (hybridoma supernatant) (antibody, V domains shown, rat IgG; also called BFX - 1E1) VH: QVQLQESGPTLVKPGDSVKMSCKAFGYTFTDHIIHWVKQSHGKSLEWIGYINPYSGGTNYNEKFKSKATLTVDKSSSTAYMEFSRLTSEDSAICYCALNYGSYYAMDAWGQGTSVTVSS VL: DIQMTQSPASLSASLGQTVTIECRPSEDIYSNLAWFQQKPGSSPQLLIYDANNLADGVPSRFSGSGSGTQYSLKINSLQSEDVASYFCQQYNKYPYTFGTGTKLELK		2.2	0.72	Kd [5]: 0.23 nM; koff [5]: 0.00011 s⁻¹; kon [5]: 460000 M⁻¹ s⁻¹
6D6-B8 anti-CD123 rat IgG (hybridoma supernatant) (antibody, V domains shown, rat IgG; also called BFX - 6D6) VH: QVQLQESGPTLVKPGDSVKMSCKASAYTFTDNIIHWVKQSHGKSLDWIGYINPYSGGTNYNGWFRSKATLTVDKSSSTAYMEFSRLTSDDSAIYYCALNYGSYYAMDAWGQGTSVTVSS VL: DIQMTQSPASLSASLGETVTIDCRPSEDIFNNLAWYQQKPGNSPQLLIYDANSLADGVPSRFSGSGSGTQYSLMIIRLQSEDVASYFCHQYNIYPYTFGAGTKLELK		0.9		
12D2-E5 Fab (Fab, V domains shown) VH: EVKLVESGGGLVQPGRSLRLSCAASGFNFYAYWMGWVRQAPGKGLEWIGEIKKDGTTINYTPSLKDRFTISRDNAQNTLYLQMTKLGSEDTALYYCAREERDGYFDYWGQGVMVTVSS VL: QFVLTQPNSVSTNLGSTVKLSCKRSTGNIGSNYVNWYQQHEGRSPTTMIYRDDKRPDGVPDRFSGSIDRSSNSALLTINNVQTEDEADYFCQSYSSGIVFGGGTKLTVL				binding result [2]: no binding (tested: <20% of binding of huCD3e + huCD3d)
18H11-F10 anti-CD3 antibody (hybridoma supernatant) (antibody, V domains shown, rat IgG in hybridoma supernatant) VH: EVQLVESGGGLVQPGRSLKLSCAASGFIFSDYYMAWVRQAPKKGLEWVATISISGSRTYYPDSVKGRFTVSRDNAKSSLYLQMNSLKSEDTATYYCATNNPGGWFVYWGQGTLVTVSS VL: NIQMTQSPSLLSASVGDRVTLSCKAGQNINNDLAWYQQKLGEAPRLLIYNANSLQTGIPSRFSGSGSGADFTLTISSLQPEDVATYFCQQYSSGDTFGAGTKLELK	35			
2F8-D6 anti-CD123 rat IgG (hybridoma supernatant) (antibody, V domains shown, rat IgG; also called BFX - 2F8) VH: QVQLKESGPGLVQPSQTLSLTCTVSGFSLTSYGVSWVRQPPGKGLEWIATISSAGSTYYDLVLKSRLSITRDTSKSQVFLKVHSLQTEDTAIYLCARDAPVFNYGSYNAMDSWGQGTSVTVSS VL: DIQMTQSPSFLSATVGDRVTINCKASQNINKYLNWYQQKLGEAPKRLIYNTNSLQTGIPSRFSGSGSGTDYTLTISSLQPEDVATYFCLQHKSGLTFGSGTKLEIK		3.4	0.51	Kd [5]: 0.53 nM; koff [5]: 6.6e-05 s⁻¹; kon [5]: 130000 M⁻¹ s⁻¹
